Measured values published in the supplement of paper PMC10126150.
± gives the standard deviation of the averaged measurements.

Tested on: ATP
Experiment: switch fluorescence ratio, 500 uM ATP over buffer (Cy3 cluster intensity, sum of 5 cycles each) (fold (ratio)); higher = stronger signal-on switching upon ATP binding; sequences stand for … in TCGTCGGCAGCGTCAGATGTGTATAAGAGACAGTTTTTTTTTTTTTTTTTTTTTTTTT…TC
Conditions: aptamer strand: ATP DNA aptamer (quencher-CACCTGGGGGAGTATTGCGGAGGAAGG + anchor), 100 nM annealed; ATP concentration: 500 uM
Procedure, shortened: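 Imaging in selection buffer was followed by imaging after 15 min with 500 uM ATP at 22 °C, for Cy3-labelled switching-strand clusters annealed to 100 nM quencher-labelled ATP aptamer on a modified Illumina MiSeq flow-cell. Five of these buffer/ATP cycles ran, separated by NaOH stripping and re-annealing. The fluorescence ratio per cluster is summed target-cycle over summed buffer-cycle Cy3 intensity, averaged per switch-domain sequence; clusters outside 100-1000 RFU were removed.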
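Further: ATP exposure 15 min at 22 °C before imaging.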

Row | Sequence | switch fluorescence ratio
1 | TATGGAGTGG | 1 ± 0.039
2 | ACGGTCCTTT | 0.973 ± 0.038
3 | TATATATGAA | 1.01 ± 0.015
4 | AGTGGCCCCG | 1 ± 0.011
5 | ATGAAGAGAG | 0.9897 ± 0.0069
6 | ATAGAAGAGA | 0.985 ± 0.027
7 | CGTTGCGCTG | 1.01 ± 0.0069
8 | TTGGGGGCCC | 1.01 ± 0.033
9 | TTCTGTTTGG | 1.01 ± 0.017
10 | GGGACAGCAT | 0.996 ± 0.029
11 | TTATTTTTCG | 1.02 ± 0.018
12 | ATCGTTTAAT | 0.9671 ± 0.003
13 | GCGGCGGGTT | 1.04 ± 0.064
14 | TTAATAAATC | 0.996 ± 0.021
15 | TAACGGGGTT | 0.9826 ± 0.00097
16 | TTAAAAATGA | 1.02 ± 0.021
17 | TTCGAAAAAT | 1.05 ± 0.064
18 | AACAGGGGGC | 1.04 ± 0.023
19 | CGAGGGGCTT | 0.997 ± 0.035
20 | TAAAGGGGGT | 1.01 ± 0.047
21 | ATTGTGATCT | 0.989 ± 0.021
22 | TATGTTTGAA | 0.984 ± 0.015
23 | GTATTGGTCG | 1.058 ± 0.0091

Row | Sequence | switch fluorescence ratio
24 | ATAGACTAGA | 0.9856 ± 0.003
25 | TCTGATGGAA | 1.06 ± 0.037
26 | GTTTAAACGC | 1.01 ± 0.026
27 | GGGTTGCTTG | 0.981 ± 0.049
28 | TGGGAGTTTC | 0.978 ± 0.01
29 | GAACGGAGCT | 1.09 ± 0.052
30 | GGGATTGGCA | 0.9798 ± 0.0092
31 | ACTCATGTT | 0.996 ± 0.012
32 | TAAGGGAGGG | 1.05 ± 0.029
33 | TTTTCTTAGT | 0.974 ± 0.021
34 | GGGGTTGGAC | 0.9851 ± 0.0016
35 | TTCGAGATCT | 1.16 ± 0.11
36 | AGGGTGGGGG | 1.03 ± 0.036
37 | TCTGGATTGG | 0.961 ± 0.029
38 | TGGTAGAGGG | 0.986 ± 0.014
39 | ACGTTTGTTT | 0.971 ± 0.049
40 | ATTTGGTGCT | 0.999 ± 0.018
41 | AAGGACACGG | 1.042 ± 0.01
42 | TGCTAGCATT | 1.11 ± 0.15
43 | CATTAAAGTA | 1.1 ± 0.021
44 | CAACAGAGTG | 1.07 ± 0.085
45 | CCTGTTGCGA | 2.66 ± 0.52
46 | CCAGGGGAAG | 0.996 ± 0.017

Row | Sequence | switch fluorescence ratio
47 | AGTTTTTTAT | 1 ± 0.022
48 | CGTATGCCGG | 0.9999 ± 0.0091
49 | CAGTCTAAGA | 1.03 ± 0.056
50 | CATGGGAGAC | 0.986 ± 0.022
51 | GATAACATAC | 1.368 ± 0.0047
52 | TTTGGTAAAA | 1.01 ± 0.037
53 | AGCATTTTCA | 1.24 ± 0.32
54 | TTATGAGGTT | 1.02 ± 0.026
55 | GCGCGGGGGG | 1.02 ± 0.03
56 | ATGTGGACCT | 1.26 ± 0.065
57 | GGGTATGGCC | 1.01 ± 0.025
58 | ACCCGAGGTC | 1.09 ± 0.015
59 | GGGGCGTATG | 0.993 ± 0.02
60 | AGGTTGTGAG | 0.98 ± 0.034
61 | TAATCACGTC | 1.04 ± 0.048
62 | AGAAATTCAT | 0.992 ± 0.029
63 | GGGGGGGGCA | 0.985 ± 0.024
64 | GGAATCCTTG | 1 ± 0.0087
65 | GGCGTTTTAG | 0.998 ± 0.034
66 | GCGGACTAGT | 0.9883 ± 0.0052
67 | GCTGGAGTAT | 0.987 ± 0.026
68 | ATGGGATGCG | 0.981 ± 0.016
69 | TTCATCGAGC | 1.019 ± 0.0076

Row | Sequence | switch fluorescence ratio
70 | AAGGGAAACA | 1.04 ± 0.072
71 | AACTCTAGCA | 1.073 ± 0.0052
72 | AAGCTTGTGT | 0.997 ± 0.069
73 | TGGGGTCATG | 0.9887 ± 0.0096
74 | GCCTTTTGCA | 1.01 ± 0.03
75 | TTCGCCGGCC | 1.26 ± 0.34
76 | TGGACTACGC | 1.06 ± 0.012
77 | GAGAAGCGGT | 1.004 ± 0.008
78 | GTTGTCGGGG | 1.02 ± 0.018
79 | TGCTCCTTAG | 1.07 ± 0.03
80 | TTTGTTTTGG | 1.03 ± 0.025
81 | GATTTTGGAC | 1.031 ± 0.0078
82 | ATCGAAGCCA | 1.091 ± 0.0016
83 | TTGATGGGAC | 1.12 ± 0.021
84 | GCGGTTTCAT | 0.9984 ± 0.0098
85 | GAATATACGC | 1.04 ± 0.021
86 | ACGGGACATT | 1.19 ± 0.033
87 | CCGGGATTTT | 1.09 ± 0.13
88 | TTTCCGTTGG | 1.12 ± 0.17
89 | AATCGAATAT | 1 ± 0.015
90 | ATTGGTAGGC | 1.03 ± 0.023
91 | TAAGAGGGAG | 0.966 ± 0.036
92 | TGATGACCAT | 1.006 ± 0.0079

Row | Sequence | switch fluorescence ratio
93 | TGAGAAAATT | 1.017 ± 0.0034
94 | GTTGCTACCT | 1.05 ± 0.038
95 | AATACAGGCT | 0.999 ± 0.024
96 | TTGTCATTTT | 1.04 ± 0.067
97 | TAAGGGGGGG | 1 ± 0.029
98 | TTTTTTGCCA | 1.01 ± 0.051
99 | GGGGGTTATT | 0.989 ± 0.051
100 | CTGACTTACG | 1.11 ± 0.016
101 | TTGTTTGTGC | 1.02 ± 0.023
102 | GAGGAGCTGT | 0.999 ± 0.026
103 | CCAGGGTATC | 1.064 ± 0.0063
104 | GGGGGCCGTC | 1.01 ± 0.09
105 | ACGGGTACGC | 1.01 ± 0.021
106 | GCCGGACAGT | 1 ± 0.017
107 | GTTTTTGGAC | 0.982 ± 0.029
108 | TTTCCTGAGG | 0.991 ± 0.016
109 | TATGCACTGA | 1.06 ± 0.024
110 | TATTATTTGT | 0.994 ± 0.053
111 | TAGTTTTCAG | 1.02 ± 0.047
112 | TTCTGGTGTG | 0.9703 ± 0.0072
113 | AAAAGAGAAG | 1 ± 0.011
114 | CTCCATTGAT | 1.01 ± 0.042
115 | AGGTCGAATT | 1 ± 0.051

Row | Sequence | switch fluorescence ratio
116 | TATTTACAGG | 1.033 ± 0.0084
117 | TAAATTTATA | 0.992 ± 0.021
118 | CTTGGGAGAA | 0.9961 ± 0.0032
119 | TTGGTTTAGG | 0.983 ± 0.022
120 | AGGCGCAGTG | 1.04 ± 0.054
121 | ATGATGGGTG | 1.01 ± 0.02
122 | AAGTGCAGGG | 0.9896 ± 0.0057
123 | TCTCTATGTG | 0.966 ± 0.036
124 | CTAAGTTCCG | 1.015 ± 0.01
125 | AGAGAAAGGC | 1.08 ± 0.051
126 | TGTTTCTCGT | 1.01 ± 0.015
127 | AGTTAATGAC | 0.997 ± 0.013
128 | GGCAGTTTTT | 0.985 ± 0.02
129 | CGTATTTGTA | 1.01 ± 0.028
130 | GGCTATAATA | 1.01 ± 0.034
131 | GAGTAACCAG | 0.979 ± 0.036
132 | GCAGGAGCAT | 1.03 ± 0.052
133 | ATATAGGGTT | 1.04 ± 0.038
134 | TCTAGAACGC | 1.01 ± 0.013
135 | GCGCTGCATT | 1.06 ± 0.037
136 | GTTGATAAGT | 1.01 ± 0.0084
137 | CGGGTGAAGG | 1.06 ± 0.049
138 | CGGTTAACGT | 1.01 ± 0.033

Row | Sequence | switch fluorescence ratio
139 | AACGACAATT | 1.118 ± 0.0016
140 | GCTGGGGCCA | 1.023 ± 0.0017
141 | GCTGTTGGCG | 0.9728 ± 0.0043
142 | TCCTTGGGGA | 1.08 ± 0.086
143 | CTTGTCATGA | 1.02 ± 0.017
144 | GTCGGGGTCA | 0.99653 ± 0.0006
145 | GTTATTTGGG | 0.979 ± 0.035
146 | CCATTGAGAC | 1.04 ± 0.029
147 | CCGGGCGTCG | 1.26 ± 0.31
148 | GAGAAATTCC | 1.07 ± 0.021
149 | TTGGTAGCGG | 1.02 ± 0.034
150 | ATCTTTTAGG | 1.07 ± 0.11
151 | AATGTGCTGT | 0.983 ± 0.058
152 | TACCTGAAAA | 0.985 ± 0.022
153 | ATACGGTTTT | 0.996 ± 0.026
154 | GGTTTTGTGC | 1.03 ± 0.091
155 | AATTCATAGT | 0.978 ± 0.018
156 | TTGCCTAACT | 1.04 ± 0.028
157 | TATCTGCTAC | 3.67 ± 0.7
